Measurements as given in article doi:10.1101/332015 (bioRxiv, 2018).

Experiments:
[1] = molecular target: full-length human ARC (ARC_(1-396)) (human) (UniProt Q7LC44); assay: SEC-MALS
[2] = molecular target: T1, ARC_(131-396) (human, UniProt Q7LC44 131-396); assay: SAXS
T1 sequence (looked up): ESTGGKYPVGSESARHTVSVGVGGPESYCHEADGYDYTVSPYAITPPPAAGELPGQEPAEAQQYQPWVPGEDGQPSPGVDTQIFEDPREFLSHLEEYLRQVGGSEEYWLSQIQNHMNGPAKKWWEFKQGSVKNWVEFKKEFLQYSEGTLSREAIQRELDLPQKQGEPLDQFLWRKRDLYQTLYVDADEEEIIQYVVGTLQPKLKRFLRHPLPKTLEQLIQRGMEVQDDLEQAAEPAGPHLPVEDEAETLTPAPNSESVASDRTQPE

[3] = molecular target: T2, ARC_(170-396) (human, UniProt Q7LC44 170-396); assay: SAXS
T2 sequence (looked up): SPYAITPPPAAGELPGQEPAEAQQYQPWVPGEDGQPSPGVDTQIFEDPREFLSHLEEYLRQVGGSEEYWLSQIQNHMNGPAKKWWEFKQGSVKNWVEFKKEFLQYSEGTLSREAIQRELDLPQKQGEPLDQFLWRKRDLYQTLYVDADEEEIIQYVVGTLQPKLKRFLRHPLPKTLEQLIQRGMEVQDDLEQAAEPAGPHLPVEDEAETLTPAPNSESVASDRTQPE

[4] = molecular target: T3, ARC_(206-396) (human, UniProt Q7LC44 206-396); assay: SAXS
T3 sequence (looked up): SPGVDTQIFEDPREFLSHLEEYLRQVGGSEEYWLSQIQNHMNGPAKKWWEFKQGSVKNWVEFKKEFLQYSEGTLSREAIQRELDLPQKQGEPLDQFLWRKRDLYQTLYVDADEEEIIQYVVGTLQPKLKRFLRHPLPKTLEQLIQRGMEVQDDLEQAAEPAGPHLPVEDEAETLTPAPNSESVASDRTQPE

[5] = molecular target: T4, ARC_(206-361) (human, UniProt Q7LC44 206-361); assay: SAXS
T4 sequence (looked up): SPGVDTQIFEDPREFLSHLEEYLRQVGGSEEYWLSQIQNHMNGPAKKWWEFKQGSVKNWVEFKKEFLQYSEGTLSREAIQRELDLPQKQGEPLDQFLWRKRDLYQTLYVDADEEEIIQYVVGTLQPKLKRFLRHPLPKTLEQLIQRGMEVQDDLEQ

[6] = molecular target: T5, ARC_(207-277) (human, UniProt Q7LC44 207-277); assay: SAXS
T5 sequence (looked up): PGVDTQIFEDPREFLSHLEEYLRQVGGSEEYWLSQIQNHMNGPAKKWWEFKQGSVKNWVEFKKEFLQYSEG

[7] = molecular target: T5, ARC_(207-277); assay: synchrotron radiation circular dichroism

| Molecule | stoichiometry N [1] | binding result [2] | binding result [3] | binding result [4] | binding result [5] | binding result [6] | binding result [7] |
| --- | --- | --- | --- | --- | --- | --- | --- |
| full-length human ARC (ARC_(1-396)) (from UniProt Q7LC44 1-396) (natural protein) | 2 | – | – | – | – | – | – |
| Ac-TSPKFRSR-NH2 [GKAP peptide (TSPKFRSR)] | – | binds | binds | binds | binds | binds | – |
| Ac-RTPVFVSP-NH2 [WAVE1 peptide (RTPVFVSP)] | – | binds | binds | binds | binds | binds | – |
| Ac-RIPSYRYR-NH2 [Stargazin peptide (RIPSYRYR)] | – | binds | binds | binds | binds | – | binds |
